Assay results: patent publication US20140193417A1 (LUDWIG INSTITUTE FOR CANCER RESEARCH, published 2014)

What was measured:
[1] = molecular target: T1, sodium-dependent phosphate transport protein 2b (NaPi2b, SLC34A2), human, endogenous (human, UniProt O95436 1-690); test: mixed hemadsorption assay (MHA) on SK-RC-33 renal cancer cells
T1 construct: whole, on cells; Naturally expressed, N-glycosylated membrane protein of human cancer cell lines (OVCAR-3, SK-RC-18 and others) and tissues; used on intact cells (MHA, flow cytometry), in cell or tissue lysates (Western blot, immunoprecipitation) and in tissue sections; also called MX35 antigen; NaPi2b/MX35
T1 sequence (looked up): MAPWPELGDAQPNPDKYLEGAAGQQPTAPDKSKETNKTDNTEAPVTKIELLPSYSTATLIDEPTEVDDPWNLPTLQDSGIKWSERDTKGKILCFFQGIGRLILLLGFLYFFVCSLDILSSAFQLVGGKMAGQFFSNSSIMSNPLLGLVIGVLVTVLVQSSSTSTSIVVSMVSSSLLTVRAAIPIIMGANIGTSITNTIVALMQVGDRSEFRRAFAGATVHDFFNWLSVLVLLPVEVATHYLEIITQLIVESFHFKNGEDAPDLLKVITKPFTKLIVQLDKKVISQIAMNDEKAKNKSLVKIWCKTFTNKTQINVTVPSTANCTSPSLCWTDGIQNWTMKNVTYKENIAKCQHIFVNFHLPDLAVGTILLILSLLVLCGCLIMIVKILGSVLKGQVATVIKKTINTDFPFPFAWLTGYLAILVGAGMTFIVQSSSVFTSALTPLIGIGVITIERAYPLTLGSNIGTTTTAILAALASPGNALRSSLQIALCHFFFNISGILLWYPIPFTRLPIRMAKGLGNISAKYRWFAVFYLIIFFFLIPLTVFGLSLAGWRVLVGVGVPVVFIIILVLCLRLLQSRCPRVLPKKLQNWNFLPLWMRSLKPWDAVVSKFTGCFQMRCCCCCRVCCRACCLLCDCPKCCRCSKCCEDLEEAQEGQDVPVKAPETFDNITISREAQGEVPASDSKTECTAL
Excerpt: A panel of cancer cell lines was co-typed for SLC34A2 mRNA expression by RT-PCR and for cell surface expression of MX35 protein antigen in a mixed hemadsorption assay (MHA) using mAb MX35 as probe. In addition, cell lysates were probed by Western blot analysis for MX35 expression. A panel of cancer cell lines with known expression of MX35 antigen was included. Strong expression of SLC34A2 mRNA correlated with MX35 antigen cell surface expression in all cells analyzed (Table 1). No such correlation was found for the Zinc-finger protein 638 (data not shown).

[2] = molecular target: T2, GST/NaPi2b-4L fusion protein (311-340aa) (human, UniProt O95436 311-340); test: Western blot of truncated GST fusion proteins
T2 construct: Expressed in E. coli; not shown: glutathione S-transferase (GST) tag of vector pGEX4T1
T2 chain (looked up): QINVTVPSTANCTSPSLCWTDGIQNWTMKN

[3] = molecular target: T3, His-NaPi2b-ECD (His-tagged aa 188-361 of NaPi2b, Sf9 insect cells) (human, UniProt O95436 188-361); test: Western blot
T3 construct: range 188-361; Baculovirus expression; also called His-tagged protein in Sf9 insect cells; not shown: His tag
T3 sequence (looked up): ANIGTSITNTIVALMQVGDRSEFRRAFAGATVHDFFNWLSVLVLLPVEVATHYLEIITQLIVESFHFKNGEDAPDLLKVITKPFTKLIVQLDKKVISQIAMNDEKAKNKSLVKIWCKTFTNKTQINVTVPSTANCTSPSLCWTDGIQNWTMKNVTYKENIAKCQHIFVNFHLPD

[4] = molecular target: T4, GST/NaPi2b-L fusion protein (aa 188-361 of NaPi2b) (human, UniProt O95436 188-361); test: Western blot
T4 construct: range 188-361; GST is put first here (pGEX vector); also called GST-fusion protein (covering aa 188-361 of NaPi2b); bacterial fusion protein; not shown: glutathione S-transferase (GST) tag of vector pGEX4T1
T4 sequence (looked up): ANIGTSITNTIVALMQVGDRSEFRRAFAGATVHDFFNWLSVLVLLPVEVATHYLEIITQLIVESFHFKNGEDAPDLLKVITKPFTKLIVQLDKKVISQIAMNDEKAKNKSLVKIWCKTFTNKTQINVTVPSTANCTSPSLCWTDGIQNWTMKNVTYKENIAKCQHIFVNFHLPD

murine NaPi2b protein = molecular target: T5, murine NaPi2b protein (mouse, UniProt Q9DBP0 1-697); test: Western blot of mouse tissues (data not shown)
T5 construct: also called the murine protein; murine counterpart
T5 sequence (looked up): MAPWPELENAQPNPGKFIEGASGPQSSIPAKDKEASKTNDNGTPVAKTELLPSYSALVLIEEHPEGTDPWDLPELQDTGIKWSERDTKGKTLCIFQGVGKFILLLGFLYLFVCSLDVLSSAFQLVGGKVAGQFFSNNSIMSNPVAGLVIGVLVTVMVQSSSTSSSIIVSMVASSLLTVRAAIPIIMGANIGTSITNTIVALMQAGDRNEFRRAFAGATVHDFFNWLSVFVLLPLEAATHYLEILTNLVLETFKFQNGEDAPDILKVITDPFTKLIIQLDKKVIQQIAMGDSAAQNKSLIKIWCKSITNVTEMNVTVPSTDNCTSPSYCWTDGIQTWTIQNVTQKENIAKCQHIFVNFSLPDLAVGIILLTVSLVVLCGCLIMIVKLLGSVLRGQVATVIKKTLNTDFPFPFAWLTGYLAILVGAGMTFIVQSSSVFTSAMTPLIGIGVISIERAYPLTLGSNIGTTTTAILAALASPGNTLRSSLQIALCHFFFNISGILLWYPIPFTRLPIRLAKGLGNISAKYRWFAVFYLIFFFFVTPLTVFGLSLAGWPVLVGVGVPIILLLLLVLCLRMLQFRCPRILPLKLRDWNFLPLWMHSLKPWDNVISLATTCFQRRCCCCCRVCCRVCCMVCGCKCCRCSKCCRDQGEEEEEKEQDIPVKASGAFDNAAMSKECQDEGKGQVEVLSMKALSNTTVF

[5] = molecular target: T6, T330M variant 312-340 peptide (SLC34A p312-340 T330M) (human); test: dot blot
T6 construct: also called T330M P312-340 peptide
T6 peptide: SPSLCWMDGIQNWTM
Excerpt: Corut et al have studied and identified mutations in SLC34A2 that are predicted to cause pulmonary alveolar microlithiasis and are possibly also associated with testicular microlithiasis (Corut, A. et al (2006) AM J. Hum Genet. 79:650-656). While analyzing normal controls, Corut identified a novel variant c.989C-T (p. T330M), whereby threonine is replaced with methionine, substituting a polar residue with a non-polar residue. This is presumed to inactivate the SLC34A2 protein. This T330M mutation is located within the MX35 epitope peptide region of SLC34A2. […] While MX35, L2 and L3 antibodies bind p312-340 peptide SEQ ID NO: 8, none of these antibodies bind T330M P312-340 peptide by dot blot analysis.

binding result [1]: binds | binding result [2]: binds | binding result [3]: binds | binding result [4]: binds | binding result (murine NaPi2b protein): no binding | binding result [5]: no binding
B1: Murine mAb MX35 (IgG1) (antibody, V domains shown)
VH: QVQLKQSGAELVKPGASVKMSCKASGYTFTGYNIHWVKQTPGQGLEWIGAIYPGNGDTSYKQKFRGKASLTADTSSSTVYMQLSSLTSEDSAVYYCARGETARATFAYWGQGTLVTVSA
VL: DIQMTQTTSSLPASLGDRVTISCSASQDIGNFLNWYQQKPDGTVKVLIYYTSSLYSGVPSRFSGSGSGTDYSLTISNLEPEDIATYYCQQYSKLPLTFGAGTKLELKR
notes: also called MX35 MAb; monoclonal antibody MX35
